Results on 2 molecules are retold here after US20110008350A1 (published 2011).

To fix the notation:
B1: dTag PSH1 (double-tagged human Presenilin homolog 1) (other, UniProt Q8TCT6 1-384, looked up, not shown: small tags and cut ends)
chain: MAEQTYSWAYSLVDSSQVSTFLISILLIVYGSFRSLNMDFENQDKEKDSNSSSGSFNGNSTNNSIQTIDSTQALFLPIGASVSLLVMFFFFDSVQVVFTICTAVLATIAFAFLLLPMCQYLTRPCSPQNKISFGCCGRFTAAELLSFSLSVMLVLIWVLTGHWLLMDALAMGLCVAMIAFVRLPSLKVSCLLLSGLLIYDVFWVFFSAYIFNSNVMVKVATQPADNPLDVLSRKLHLGPNVGRDVPRLSLPGKLVFPSSTGSHFSMLGIGDIVMPGLLLCFVLRYDNYKKQASGDSCGAPGPANISGRMQKVSYFHCTLIGYFVGLLTATVASRIHRAAQPALLYLVPFTLLPLLTMAYLKGDLRRMWSEPFHSKSSSSRFLEV
notes: Control bait, stably expressed in PS dKO MEF cells; also called dTag SPPL3; SPP-like protease 3

Test [1] deals with T1, Integrin alpha-3 (mouse, UniProt Q62470 33-1053, limits assumed).
T1 construct: also called Itga3; α3β1 integrin (alpha chain)
T1 sequence (looked up): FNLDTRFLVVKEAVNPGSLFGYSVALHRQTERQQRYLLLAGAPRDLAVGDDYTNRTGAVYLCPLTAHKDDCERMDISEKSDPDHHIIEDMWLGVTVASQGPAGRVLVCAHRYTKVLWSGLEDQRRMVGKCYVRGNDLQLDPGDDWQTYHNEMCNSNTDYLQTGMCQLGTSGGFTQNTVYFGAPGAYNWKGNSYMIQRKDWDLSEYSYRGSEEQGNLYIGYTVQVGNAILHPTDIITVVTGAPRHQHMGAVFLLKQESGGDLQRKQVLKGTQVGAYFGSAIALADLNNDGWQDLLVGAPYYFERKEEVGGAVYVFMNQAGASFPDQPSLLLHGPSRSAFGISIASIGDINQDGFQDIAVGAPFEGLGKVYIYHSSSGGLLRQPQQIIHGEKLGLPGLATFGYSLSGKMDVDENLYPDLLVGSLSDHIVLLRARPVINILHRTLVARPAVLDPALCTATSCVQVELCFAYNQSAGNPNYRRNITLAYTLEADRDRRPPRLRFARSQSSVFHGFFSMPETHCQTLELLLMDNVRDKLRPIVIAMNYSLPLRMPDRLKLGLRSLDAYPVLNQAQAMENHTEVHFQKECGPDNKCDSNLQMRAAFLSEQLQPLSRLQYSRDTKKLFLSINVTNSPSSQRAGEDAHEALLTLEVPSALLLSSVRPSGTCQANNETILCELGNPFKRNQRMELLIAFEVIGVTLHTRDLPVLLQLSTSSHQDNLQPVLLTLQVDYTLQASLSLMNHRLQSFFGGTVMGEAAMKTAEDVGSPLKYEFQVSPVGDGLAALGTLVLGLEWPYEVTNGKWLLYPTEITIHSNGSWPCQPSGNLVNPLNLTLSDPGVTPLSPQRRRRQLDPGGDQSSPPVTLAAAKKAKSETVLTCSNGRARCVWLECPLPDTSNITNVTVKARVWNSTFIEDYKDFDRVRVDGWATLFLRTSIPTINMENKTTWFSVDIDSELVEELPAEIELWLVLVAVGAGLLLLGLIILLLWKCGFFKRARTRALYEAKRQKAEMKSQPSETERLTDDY
The test can be described thus: TAP-tag purification from MEF membranes, LC-MS/MS. The method, then: (§1) Harvested MEF cells were re-suspended in STE buffer (5 mM Tris-HCl pH 7.4, 250 mM sucrose, 1 mM EGTA) supplemented with the Complete protease inhibitors. The cells were lysed by being passed ten times through a ball-bearing cell cracker followed by removal of the nuclei and cell debris by centrifugation at 800×g for ten minutes at 4° C. The supernatant was further centrifuged at 100,000×g for 60 minutes at 4° C. The microsomal membrane pellet was re-suspended in the solubilization buffer (HEPES buffer; 50 mM HEPES pH 7.2, 150 mM NaCl with 1% 3-[(3-Cholamidopropyl)dimethylammonio]-2-hydroxy-1-propanesulfonate (CHAPSO, Calbiochem) or 0.5% 3-[(3-Cholamidopropyl) dimethylammonio]-1-propanesulfonate (CHAPS, Calbiochem)) supplemented with the Complete protease inhibitors and was solubilized at 4° C. for three hours. After centrifugation at 100,000×g for 60 minutes at 4° C., the supernatant was saved and protein concentration was determined. The solubilized membranes were applied on pre-equilibrated anti-FLAG M2 affinity gel (Sigma). The gel was washed with the solubilization buffer and bound proteins were eluted with solubilization buffer with 20 μg/ml of FLAG peptides (Sigma). […] After washing, the bound proteins were eluted with 5 mM EGTA.

The target in test [2] is T2, Integrin beta-1 (mouse, UniProt P09055 21-798).
T2 construct: also called Itgb1; α3β1 integrin (beta chain)
In words: TAP-tag purification from MEF membranes, LC-MS/MS. How it is done: as §1

Test [3] addresses T3, PGRL/EWI-2 (endogenous, MEF cells) (mouse, UniProt Q8R366 26-611).
T3 construct: also called Igsf8
T3 sequence (looked up): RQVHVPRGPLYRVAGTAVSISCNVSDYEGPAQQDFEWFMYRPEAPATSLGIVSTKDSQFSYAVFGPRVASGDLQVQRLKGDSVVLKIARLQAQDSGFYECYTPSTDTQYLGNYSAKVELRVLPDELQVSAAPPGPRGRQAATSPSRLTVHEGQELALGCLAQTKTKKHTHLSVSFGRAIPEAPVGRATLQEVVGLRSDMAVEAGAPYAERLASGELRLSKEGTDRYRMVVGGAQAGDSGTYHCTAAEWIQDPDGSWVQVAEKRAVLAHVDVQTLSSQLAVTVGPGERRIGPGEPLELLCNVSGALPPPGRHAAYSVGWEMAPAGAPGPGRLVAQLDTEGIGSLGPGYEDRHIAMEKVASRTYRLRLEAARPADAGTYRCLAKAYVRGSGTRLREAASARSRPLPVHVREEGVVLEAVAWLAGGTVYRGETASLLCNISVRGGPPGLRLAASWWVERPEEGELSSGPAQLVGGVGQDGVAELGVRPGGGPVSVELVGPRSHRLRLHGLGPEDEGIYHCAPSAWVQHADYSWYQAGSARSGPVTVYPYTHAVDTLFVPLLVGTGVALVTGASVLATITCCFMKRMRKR
The test can be described thus: TAP-tag purification from MEF membranes, LC-MS/MS. How it is done: as §1

For test [4], the target named is T4, Nicastrin (endogenous, MEF cells) (mouse, UniProt P57716 28-708).
T4 construct: also called NCT
In words: TAP-tag purification from MEF membranes, Western blot.
Protocol: Insoluble fractions were removed by centrifugation at 15,000×g for 15 minutes at 4° C. Protein concentration was determined by the Bradford dye-binding procedure (Bio-Rad). […] Membranes were blocked with 5% skim milk in TBS and probed with antibodies followed by incubation with horseradish peroxidase conjugated antibodies (Bio-Rad). Bands were detected with Renaissance (ParkinElmer).
Harvested MEF cells were re-suspended in STE buffer (5 mM Tris-HCl pH 7.4, 250 mM sucrose, 1 mM EGTA) supplemented with the Complete protease inhibitors. The cells were lysed by being passed ten times through a ball-bearing cell cracker followed by removal of the nuclei and cell debris by centrifugation at 800×g for ten minutes at 4° C. The supernatant was further centrifuged at 100,000×g for 60 minutes at 4° C. The microsomal membrane pellet was re-suspended in the solubilization buffer (HEPES buffer; 50 mM HEPES pH 7.2, 150 mM NaCl with 1% 3-[(3-Cholamidopropyl)dimethylammonio]-2-hydroxy-1-propanesulfonate (CHAPSO, Calbiochem) or 0.5% 3-[(3-Cholamidopropyl) dimethylammonio]-1-propanesulfonate (CHAPS, Calbiochem)) supplemented with the Complete protease inhibitors and was solubilized at 4° C. for three hours. After centrifugation at 100,000×g for 60 minutes at 4° C., the supernatant was saved and protein concentration was determined. […]

For test [5], the target named is B1. The test can be described thus: TAP-tag purification from MEF membranes, LC-MS/MS. How it is done: as §1

B1: the binding result in test [1], in test [2], in test [3] and in test [4] was “no binding” each time.

B2: CD81/TAPA-1 (endogenous, MEF cells) (other, mouse, UniProt P35762 1-236, looked up)
chain: MGVEGCTKCIKYLLFVFNFVFWLAGGVILGVALWLRHDPQTTSLLYLELGNKPAPNTFYVGIYILIAVGAVMMFVGFLGCYGAIQESQCLLGTFFTCLVILFACEVAAGIWGFVNKDQIAKDVKQFYDQALQQAVMDDDANNAKAVVKTFHETLNCCGSNALTTLTTTILRNSLCPSGGNILTPLLQQDCHQKIDELFSGKLYLIGIAAIVVAVIMIFEMILSMVLCCGIRNSSVY
Consider B2, for which the binding result in test [5] was “no binding”.
